Results as given in the supplement of paper PMC10126150.
± gives the standard deviation of the averaged measurements.

System: ATP
Test: switch fluorescence ratio, 500 uM ATP over buffer (Cy3 cluster intensity, sum of 5 cycles each) (fold (ratio)); higher = stronger signal-on switching upon ATP binding; sequences stand for … in TCGTCGGCAGCGTCAGATGTGTATAAGAGACAGTTTTTTTTTTTTTTTTTTTTTTTTT…TC
Settings: aptamer strand: ATP DNA aptamer (quencher-CACCTGGGGGAGTATTGCGGAGGAAGG + anchor), 100 nM annealed; ATP concentration: 500 uM
Outline: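 Switching-strand clusters labelled with Cy3 on a modified Illumina MiSeq flow-cell were annealed to 100 nM quencher-labelled ATP aptamer, imaged in selection buffer, and re-imaged after 15 min with 500 uM ATP at 22 °C. This was done over five cycles with NaOH stripping and re-annealing in between. The fluorescence ratio is summed target-cycle over summed buffer-cycle Cy3 intensity per cluster, averaged per switch-domain sequence, excluding clusters outside 100-1000 RFU.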
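Also: ATP exposure 15 min at 22 °C before imaging.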

Sequence | switch fluorescence ratio
TCAAAGGGGT | 1.052 ± 0.0047
TCAAAGTACC | 1.16 ± 0.073
TCAAATAGCG | 1.031 ± 0.0032
TCAAATAGGA | 1.01 ± 0.012
TCAAATATTT | 0.979 ± 0.0025
TCAAATTTTA | 1.02 ± 0.031
TCAACGAATG | 0.994 ± 0.08
TCAACGGGAA | 1.01 ± 0.014
TCAACGGTAT | 1.06 ± 0.029
TCAACTATAG | 0.999 ± 0.01
TCAAGAAATC | 0.983 ± 0.091
TCAAGAATGG | 1 ± 0.059
TCAAGACCTT | 1.19 ± 0.014
TCAAGATAGG | 1.014 ± 0.0028
TCAAGCCATC | 1.063 ± 0.0037
TCAAGCGAAC | 1.48 ± 0.061
TCAAGGATGT | 1 ± 0.032
TCAAGGGAAC | 0.9826 ± 0.004
TCAAGGGATC | 0.991 ± 0.073
TCAAGGGCAG | 1.0257 ± 0.00011
TCAAGGGCGG | 0.988 ± 0.044
TCAAGGGGGT | 1.04 ± 0.097
TCAAGGGGTG | 1.034 ± 0.0082
TCAAGGTGTT | 1.15 ± 0.062
TCAATAGATG | 0.998 ± 0.032

Sequence | switch fluorescence ratio
TCAATCATTT | 0.997 ± 0.053
TCAATGAAGC | 0.988 ± 0.012
TCAATGAGGG | 1.01 ± 0.03
TCAATGCGAT | 1.33 ± 0.19
TCAATGGGGG | 0.985 ± 0.062
TCAATTATTT | 1 ± 0.023
TCAATTGAGA | 1.02 ± 0.01
TCAATTTAGA | 1.03 ± 0.038
TCACAATGCT | 1.55 ± 0.016
TCACAATTTA | 0.9774 ± 0.0044
TCACACAGGC | 1.08 ± 0.16
TCACACGGAG | 1.043 ± 0.0056
TCACACGGGG | 1.03 ± 0.061
TCACAGTTGC | 0.99 ± 0.12
TCACATTAAC | 1.04 ± 0.066
TCACATTTTC | 1.09 ± 0.14
TCACCGCACG | 2.2 ± 0.36
TCACGCTGTG | 1.01 ± 0.036
TCACGGGGGA | 1.03 ± 0.039
TCACGGGTGC | 1.91 ± 0.19
TCACGGTTGC | 1.04 ± 0.016
TCACTAGAGT | 0.9722 ± 0.0053
TCACTATATT | 1.08 ± 0.045
TCACTCATAT | 1.02 ± 0.013
TCACTTTGTG | 1.01 ± 0.043

Sequence | switch fluorescence ratio
TCAGACTACT | 1.02 ± 0.021
TCAGAGCATC | 1.96 ± 1.1
TCAGAGGAAT | 1.01 ± 0.0089
TCAGAGGCGG | 1 ± 0.011
TCAGATTAGC | 0.998 ± 0.018
TCAGCAAAGT | 1.08 ± 0.019
TCAGCAAATT | 1.09 ± 0.041
TCAGCAATCG | 2.57 ± 0.026
TCAGCATGCG | 0.933 ± 0.025
TCAGCCCCAT | 1.033 ± 0.0072
TCAGCGTTTC | 1.05 ± 0.027
TCAGGACGGA | 1.018 ± 0.0015
TCAGGAGTCT | 0.977 ± 0.062
TCAGGATGGC | 1.13 ± 0.092
TCAGGATTTC | 1 ± 0.036
TCAGGCATTG | 0.979 ± 0.018
TCAGGCGTGA | 0.987 ± 0.035
TCAGGGACAA | 1.01 ± 0.013
TCAGGGACGG | 0.982 ± 0.025
TCAGGGATTG | 0.977 ± 0.017
TCAGGGCGAA | 0.995 ± 0.016
TCAGGGCGCA | 1.03 ± 0.079
TCAGGGCTAG | 0.9837 ± 0.0093
TCAGGGGACG | 1 ± 0.025
TCAGGGGATG | 0.99 ± 0.026

Sequence | switch fluorescence ratio
TCAGGGGCGC | 0.971 ± 0.031
TCAGGGGGTG | 1.05 ± 0.11
TCAGGGTCTT | 1.01 ± 0.011
TCAGGGTGGG | 1 ± 0.029
TCAGGTGTTT | 1.56 ± 0.51
TCAGGTTCGT | 0.987 ± 0.01
TCAGTAAATG | 0.969 ± 0.038
TCAGTAGGGG | 0.978 ± 0.068
TCAGTCGTGG | 0.9928 ± 0.0033
TCAGTCTTTC | 1.017 ± 0.0009
TCAGTGGGGG | 0.97 ± 0.019
TCAGTGTGCC | 0.995 ± 0.03
TCAGTTCTTC | 0.989 ± 0.011
TCAGTTGGGG | 0.991 ± 0.011
TCAGTTTGGA | 1.01 ± 0.018
TCAGTTTTCC | 1.02 ± 0.018
TCATAAGGCG | 0.986 ± 0.046
TCATAAGTGC | 0.977 ± 0.011
TCATAATGAT | 1.005 ± 0.0032
TCATACATTT | 0.9801 ± 0.0049
TCATACCCTG | 1.024 ± 0.0061
TCATACTCAA | 1.4 ± 0.018
TCATAGGTAC | 1.04 ± 0.031
TCATCAATAT | 1.09 ± 0.067
TCATCACCGT | 1.01 ± 0.021

Sequence | switch fluorescence ratio
TCATCATGTT | 1.01 ± 0.043
TCATCCCGGG | 1.052 ± 0.0077
TCATCGGGG | 0.947 ± 0.027
TCATGAGGGG | 0.972 ± 0.036
TCATGCATCT | 1.01 ± 0.072
TCATGGGATG | 1.02 ± 0.018
TCATGGGGAG | 1.03 ± 0.033
TCATGGGGGG | 1.007 ± 0.01
TCATGGTCGT | 0.982 ± 0.023
TCATGGTGTC | 1.01 ± 0.018
TCATGTAGAA | 1.01 ± 0.02
TCATGTGACT | 1.02 ± 0.053
TCATTATGAA | 0.987 ± 0.054
TCATTCAAGG | 1.02 ± 0.013
TCATTCGGTG | 1.05 ± 0.041
TCATTGGCAT | 1.03 ± 0.037
TCATTGGGGA | 1.032 ± 0.0071
TCATTTTCTT | 0.9688 ± 0.0049
TCATTTTGTT | 1 ± 0.028
TCCAAAATGG | 1.09 ± 0.04
TCCAAACTGT | 1.01 ± 0.051
TCCAAGAGTT | 0.989 ± 0.0055
TCCAAGTGTT | 0.998 ± 0.035
TCCAATATGG | 1.05 ± 0.094
TCCAATGTAA | 1.06 ± 0.041

Sequence | switch fluorescence ratio
TCCACAGTGG | 1.35 ± 0.41
TCCACCCTT | 1.03 ± 0.013
TCCACGGATG | 1.04 ± 0.047
TCCAGAGATG | 0.997 ± 0.028
TCCAGAGCGG | 1.34 ± 0.47
TCCAGGATAT | 1.03 ± 0.046
TCCAGGGGAA | 1.03 ± 0.014
TCCAGGGGCG | 1.73 ± 0.99
TCCAGGGGGA | 1.1 ± 0.051
TCCAGGGTAC | 1.23 ± 0.18
TCCAGGGTTA | 1.031 ± 0.0058
TCCAGTTGCT | 1.02 ± 0.033
TCCAGTTGTA | 0.99 ± 0.019
TCCATCGGGG | 1.01 ± 0.013
TCCATGGGAC | 1.03 ± 0.041
TCCATGTGCC | 1.14 ± 0.14
TCCCATGTTT | 0.963 ± 0.032
TCCCGAGGGG | 1.083 ± 0.01
TCCCGGGACA | 1.79 ± 1.1
TCCCGGTTTT | 1.1 ± 0.11
TCCCTGGACT | 1.023 ± 0.0099
TCCGAATTGG | 1.05 ± 0.022
TCCGAGGGAT | 2.25 ± 1.3
TCCGATGGGT | 1.145 ± 0.0095
TCCGCACCGT | 1.76 ± 0.23

Sequence | switch fluorescence ratio
TCCGGAGGAC | 1.86 ± 0.03
TCCGGAGGGT | 1.05 ± 0.06
TCCGGATCGG | 1.03 ± 0.012
TCCGGCACGT | 1.01 ± 0.019
TCCGGCCAGC | 1.28 ± 0.025
TCCGGGATGG | 1.33 ± 0.39
TCCGGGGAGC | 1.06 ± 0.015
TCCGGGGTTG | 0.988 ± 0.046
TCCGGGTGTA | 1.14 ± 0.22
TCCGGGTTGG | 1.03 ± 0.013
TCCGGTCGAT | 1.127 ± 0.0072
TCCGGTGACG | 0.968 ± 0.033
TCCGGTTTCG | 1.02 ± 0.039
TCCGTTAAGA | 1.083 ± 0.0019
TCCGTTATTT | 1.021 ± 0.0092
TCCGTTGGTG | 1.01 ± 0.072
TCCTAAAAGT | 1.01 ± 0.021
TCCTAAACGT | 1.072 ± 0.0029
TCCTAGGTTT | 1 ± 0.015
TCCTATATTG | 0.986 ± 0.0023
TCCTGAGTTT | 0.991 ± 0.047
TCCTGATTCT | 1.03 ± 0.033
TCCTGATTGT | 0.988 ± 0.022
TCCTGGGTTG | 0.99 ± 0.066
TCCTTAACTT | 1.02 ± 0.061

Sequence | switch fluorescence ratio
TCCTTCACGA | 2.067 ± 0.017
TCCTTCCGGG | 2.16 ± 0.19
TCCTTGAGTG | 1.03 ± 0.031
TCCTTGATAT | 0.995 ± 0.04
TCCTTGGGTT | 1.016 ± 0.0099
TCCTTGTCTT | 1.01 ± 0.016
TCCTTTATAC | 3.09 ± 0.71
TCCTTTTATG | 0.98329 ± 2.8e-05
TCCTTTTTTT | 1.01 ± 0.033
TCGAAACTGG | 1.09 ± 0.11
TCGAAGTGAA | 1.09 ± 0.018
TCGAAGTTTT | 0.9996 ± 0.0089
TCGAATATGT | 0.986 ± 0.025
TCGACCGGGG | 1.039 ± 0.0098
TCGACGGAGT | 1.114 ± 0.00049
TCGACTGGGG | 1 ± 0.034
TCGAGAATGG | 0.952 ± 0.017
TCGAGAGAAA | 1.01 ± 0.016
TCGAGAGGGT | 0.996 ± 0.015
TCGAGAGGTG | 1.1 ± 0.1
TCGAGATAGC | 1.03 ± 0.011
TCGAGATATG | 0.978 ± 0.09
TCGAGCACTG | 1.13 ± 0.065
TCGAGCAGCT | 1.1 ± 0.032
TCGAGCCCCA | 1.04 ± 0.087
